Assay results published in patent publication US20030166571A1 (SYNVAX, published 2003).
Square brackets hold non-standard residues; d marks the D form. * marks the point of attachment. Heptanoyl = CCCCCCC(=O)*; Hexanoyl = CCCCCC(=O)*; Propionyl = CCC(=O)*; Butyryl = CCCC(=O)*

B1: IV-17-C Hexanoyl-RYYRWR-NH2 (peptide)
peptide: Hexanoyl-RYYRWR-NH2
SMILES: CCCCCC(=O)N[C@@H](CCCNC(=N)N)C(=O)N[C@@H](Cc1ccc(O)cc1)C(=O)N[C@@H](Cc1ccc(O)cc1)C(=O)N[C@@H](CCCNC(=N)N)C(=O)N[C@@H](Cc1c[nH]c2ccccc12)C(=O)N[C@@H](CCCNC(=N)N)C(N)=O
B2: IV-15-A Butryl-RYYRWR-NH2 (peptide)
peptide: Butyryl-RYYRWR-NH2
SMILES: CCCC(=O)N[C@@H](CCCNC(=N)N)C(=O)N[C@@H](Cc1ccc(O)cc1)C(=O)N[C@@H](Cc1ccc(O)cc1)C(=O)N[C@@H](CCCNC(=N)N)C(=O)N[C@@H](Cc1c[nH]c2ccccc12)C(=O)N[C@@H](CCCNC(=N)N)C(N)=O
B3: IV-12-B Ac-RY(D)YR(D)WNH2 (peptide)
peptide: Ac-R[dY]Y[dR]WR-NH2
notes: It is not clear from the print which residues the (D) marks belong to, nor whether the last Arg is missing on purpose
B4: IV-18-C Heptanoyl-RYYRWR-NH2 (peptide)
peptide: Heptanoyl-RYYRWR-NH2
SMILES: CCCCCCC(=O)N[C@@H](CCCNC(=N)N)C(=O)N[C@@H](Cc1ccc(O)cc1)C(=O)N[C@@H](Cc1ccc(O)cc1)C(=O)N[C@@H](CCCNC(=N)N)C(=O)N[C@@H](Cc1c[nH]c2ccccc12)C(=O)N[C@@H](CCCNC(=N)N)C(N)=O
notes: see recheck
B5: IV-16-C Propionyl-RYYRWR-NH2 (peptide)
peptide: Propionyl-RYYRWR-NH2
SMILES: CCC(=O)N[C@@H](CCCNC(=N)N)C(=O)N[C@@H](Cc1ccc(O)cc1)C(=O)N[C@@H](Cc1ccc(O)cc1)C(=O)N[C@@H](CCCNC(=N)N)C(=O)N[C@@H](Cc1c[nH]c2ccccc12)C(=O)N[C@@H](CCCNC(=N)N)C(N)=O
notes: see recheck

Assays:
[1] = biological target: T1, human ORL-1 receptor (opioid receptor like 1) (human, UniProt P41146 1-370); assay: [3H]nociceptin displacement at ORL1
T1 construct: whole, on cells; Assays were run on membranes of CHO cells transfected with human ORL-1; also called opiate receptor like 1; nociceptin receptor

[2] = biological target: T1, human ORL-1 receptor (opioid receptor …); assay: cell-based or functional assay

T1 sequence (P41146 whole entry): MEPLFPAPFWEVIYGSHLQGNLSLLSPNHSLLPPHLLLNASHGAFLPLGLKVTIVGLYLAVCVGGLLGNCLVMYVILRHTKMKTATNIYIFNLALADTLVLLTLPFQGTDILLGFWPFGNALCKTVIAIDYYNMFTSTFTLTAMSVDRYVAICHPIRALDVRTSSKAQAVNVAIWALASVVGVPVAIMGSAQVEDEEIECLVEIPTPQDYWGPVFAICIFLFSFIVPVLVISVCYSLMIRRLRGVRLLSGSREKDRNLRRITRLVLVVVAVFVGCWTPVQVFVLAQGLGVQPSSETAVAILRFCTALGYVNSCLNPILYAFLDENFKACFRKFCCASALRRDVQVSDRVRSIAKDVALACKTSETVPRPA

Binder | IC50 [1] | [^35S]GTPγS Binding Percent Stimulation [2] | [^35S]GTPγS Binding EC50 [2]
B1 | 2.6 nM | 18% | 
B2 | 4.3 nM | 63% | 35.3 nM
B3 | 1140 nM | < 10% | > 10000 nM
Ac-RYYRWR-NH2 (also called parent peptide) [Ac-RYYRWR-NH2] | 0.72 nM | 100% | 1.2 nM
B4 | 2.6 nM | 54% | 16.9 nM
B5 | 1.2 nM | 82% | 22.3 nM
